± gives the uncertainty stated by the source.

Data on 133 substances can be found in the supplement of paper PMC12042874.

A short description of the data set: amyloid nucleation score (Sup35N fusion, yeast selection) (log enrichment); library NNK3; higher = more nucleation; inactive = no reads after selection. In short, it runs like this:
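On medium lacking adenine and uracil, psi-negative yeast expressing peptides of 20 random codons fused to Sup35N were grown 7 days at 30°C after a 24-hour induction with 100 μM copper sulfate. Illumina sequencing of input and output plasmid inserts gave the reads, and sequences under 100 input reads were excluded. The nucleation score is the DiMSum log enrichment of output over input reads, centred on the mode score of non-aggregating sequences.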

Take ISSVQISRAFPQHRTRRN: the amyloid nucleation score entry is “inactive”.
For the substance DARNET, the amyloid nucleation score result was “inactive”.
The same measure for ASVMLNFC: “inactive”; for FQYRLTVEGMSWWTGGW: “inactive”.
The same measure for VHLNPEN: “inactive”; for SMCGYWRHI: “inactive”.
For SRFLSIRELRFWYSMNRWGI the value was “inactive”; for IVRHVVYVSCGIQYCDHFWH, “inactive”; for WMFLDTSGDIMPRGLTDYLE, “inactive”.
As to QLHVMNVYFFWKDSSALMRA, the amyloid nucleation score result was “inactive”.
For DIWFGSSKKSVMRV the value was “inactive”.
The same measure for TCMYNMVVGSLVGRWNC: 1.4 ± 0.13; for MVLYYSLILFAHCLKLARHN: “inactive”; for RIIAGWTYRSSQIWYFRDPH: “inactive”.
For RMENWLRCL the value was “inactive”; for HLIMNSDLGAATNIFMNPVA, “inactive”.
Take FWMCVSVSARWAPTSLGFGS: the amyloid nucleation score entry was “inactive”.
The same measure for GEHSGRYYSNVSKNESMGVI: “inactive”; for VRPFPFTWSSSNKEV: “inactive”.
For PFGGRR the value was 0.013 ± 0.47; for GAGTGQWLDSFGVEIHHPRS, “inactive”.
The same measure for YWSAVHEDYHTASMMEPLWW: “inactive”; for SSYLPHHISSQRLSSQEPAD: “inactive”.
Turning to RRCMFIFSYWPRRVLATVLK, the amyloid nucleation score entry is “inactive”.
The same measure for SSVGMARAYL: -1.17 ± 1.9; for LFLISG: “inactive”; for DIWYKVLYMPVLTV: “inactive”.
For NVASM the value was “inactive”; for LSSVKCSKWSIFMYMRQYIW, “inactive”.
For the substance YYSGCVLIRRILYLGRVGSP, the amyloid nucleation score entry is “inactive”.
On to HWESGGKIWNKEYLAGLLPR, for which the amyloid nucleation score entry was “inactive”.
The same measure for ILLLRGDGEACFNRVNDNSF: “inactive”.
For the substance WLSFFRWR, the amyloid nucleation score result is “inactive”.
The same measure for QTMLIM: “inactive”; for YDDVVVI: “inactive”.
For FLSDYGSC, the amyloid nucleation score entry is “inactive”.
The same measure for AYWSFFPWGLYARLPGTPVV: “inactive”.
The same measure for GNWQCFTEGRTPCYFCCITT: “inactive”; for ICRLVLSNNF: “inactive”; for INLGLPVWSSIIFFNQSHNL: 0.679 ± 0.14.
For CLTYRSG the value was “inactive”.
With SRILRLRVSSSHVERYFKLF, the amyloid nucleation score entry was “inactive”.
On to RVMCTYTRYLWFKFISLMMV, for which the amyloid nucleation score entry was “inactive”.
The same measure for LVVGISRPMSTGSMASWQWR: “inactive”; for NFLLDSLSSETGFRCY: -0.607 ± 1; for SITWET: “inactive”.
For WFFILD the value was “inactive”; for RTDFHPLYLILWNQRK, 1.9 ± 0.098; for VYMLYQFSCPGVDNWVCTES, “inactive”.
For the substance WRYWDSFFL, the amyloid nucleation score entry is “inactive”.
For ALSHITDLQFLYSIVFQAHM the value was -0.674 ± 1.3; for CFLVNQ, “inactive”; for TNMHYMSHYLETTPFTTGMV, “inactive”.
The same measure for WTVGCREWLSLCCSAKDTDA: “inactive”; for MCMYVKMYLNGSLFVYMTSK: “inactive”; for RLTVYISQRKKHHCLMERSH: 0.221 ± 0.33.
Substance CVFLCDDWFGFCNLNRRFKG displayed an amyloid nucleation score of 2.82 ± 0.074.
For ANFQWE the value was “inactive”.
Consider SANYNSNFR, for which the amyloid nucleation score entry was “inactive”.
The same measure for SCYIEWMVFGSYPL: “inactive”.
For AKNSKKSMLSVNGDRNDQSF the value was “inactive”.
The same measure for VRFVSYRLVGSV: “inactive”; for WDAPMSNVDRL: “inactive”.
For the substance RFSWWRW, the amyloid nucleation score worked out at 1.24 ± 0.14.
For AVVSIVVLRDKRTFLGRLYL the value was 1.53 ± 0.087; for AGAVVDV, “inactive”.
The same measure for LHPLYRFSANSSKDLFTSRL: “inactive”; for GLISPRYATSSWLCQPIINF: “inactive”; for LINKHNRVMYLAICA: “inactive”.
With CLWRRCMPSHPMVEVSRLIW, the amyloid nucleation score entry was “inactive”.
For LSNFITTLSTWITLSI the value was “inactive”; for GSALSSLFQCLLFPLSVSVL, 0.49 ± 0.21; for VKVEPVRLLWTHVWKS, “inactive”.
The same measure for SSEPMHLEASIPVFAKE: “inactive”; for CSNKQSDTSFAYLTIMNMCP: “inactive”; for NFENMSCSNTVNVLFIEPGA: 1.14 ± 0.096.
The same measure for IEFGYLGT: “inactive”; for YGTMFLENTYNPFPVGSHVF: “inactive”.
In the case of RDRCISFEYAVQTCHYECRP, the amyloid nucleation score is -0.294 ± 0.74.
For NLVCQLLGRQRDPINPVVCW the value was “inactive”; for CQCEIF, 0.065 ± 0.56.
The same measure for IMKACGDK: “inactive”.
For WLGPYVLHSSAGSGMVDNGT the value was “inactive”.
With AWRSMSGVTYPQGTSLPFSK, the amyloid nucleation score entry is “inactive”.
For YSKEWVFISIIQKLADGQCN the value was -0.182 ± 0.66.
The same measure for NLNRSLVFFSCDYAGCDGCT: 1.48 ± 0.077.
For SYNYRGADRWLT the value was “inactive”; for CSVTIGLIDTSPAIVSIPSD, “inactive”.
For GQKDCYFLIMYIREVLNRYT, the amyloid nucleation score entry is “inactive”.
The same measure for FELYLQLN: 0.478 ± 0.38; for SFYIVVRWMYIRFVDQYLIY: “inactive”; for VGLRNLGFVMFSRWLTPLLI: “inactive”.
For IKFIPYYCYPCRLIRLRVKC the value was “inactive”; for ALIRITRYYLSFTGY, “inactive”; for ASHMMQRIMTRQ, -0.308 ± 0.84.
For RECWMKPNLNSNTYSEMICE the value was 0.011 ± 0.81; for TFSPVGMISLYCYGT, -0.065 ± 0.45; for ISMNLVLFMWFRRIGFLICL, “inactive”.
Consider SWFSVLLGLRTSRVIANSTY, for which the amyloid nucleation score result is “inactive”.
For SVYPVFPTLFNSSYFSGTFG the value was “inactive”; for DSIAVCGRITPSLNLQFDMQ, “inactive”; for AVKHHSSTFIFTMGIKLLWL, “inactive”.
For GIKFAGRRLTSEDL the value was “inactive”; for IVQAFVSVLSY, “inactive”.
For FYRCLLNH the value was “inactive”.
On to SCWRNLYSFLRKGSYSRCM, for which the amyloid nucleation score result was “inactive”.
As to IYVRAFRWFMNKVTSTAWTI, the amyloid nucleation score entry is “inactive”.
The same measure for LGGKDSASILIVPWTILSGL: “inactive”; for KASHWV: “inactive”; for RVFHP: “inactive”.
The same measure for CGSWYSCCKNINEVARSYTG: “inactive”; for CQFFQFDLNYEFKLVSRAHK: “inactive”.
The same measure for IRCRQNPGSHVIRYFCCRRS: “inactive”.
In the case of FFTSTLLSRPNVPNIYSISR, the amyloid nucleation score entry is “inactive”.
Consider QDYGYFNTYQFVRKWSSISL, for which the amyloid nucleation score entry is “inactive”.
The same measure for LHPYHYIWKMAHL: “inactive”; for VRCVGGHSHDHWETVWGVFG: “inactive”.
For RARLMITYYLTDQASDNRYV the value was 0.799 ± 0.28; for IFLCI, “inactive”; for SFCFSNDVA, “inactive”.
The same measure for NLKFRRFTGNMCSTPKVCLK: “inactive”.
Consider DFHDLEWILNIEGACEEQGT, for which the amyloid nucleation score entry is “inactive”.
Substance VCLFICLNDDFLIRRPDCLS registered an amyloid nucleation score of 2.08 ± 0.051.
The same measure for SCGACLKEGRSG: “inactive”; for SRVWTISWLNDGVGGRTQAE: “inactive”.
The same measure for YATACGMILQKVVGKLTLLA: -0.395 ± 0.46.
The same measure for QSWLMPFCLVSSTWKV: “inactive”; for FTPYICVVQLLCYCMILRIY: “inactive”.
Take VSLFRSLGNLSFSSIWLPSP: the amyloid nucleation score result was “inactive”.
The same measure for SANSQYDI: “inactive”; for SVDVMTGLPTWSYLCDDETR: 2.2 ± 0.06.
The same measure for PINETRSEESLVGSRGM: “inactive”; for VYLWKYRPQYPRVA: “inactive”.
